Experimental data: patent US20180037644A1 (Pfizer, published 2018)

How the values were obtained:
[1] = target: T1, human IL-33 (mm2) (human, UniProt O95760 112-270); test: KinExA, fixed-antigen format, both partners in solution
T1 construct: Variant in which all four cysteine residues are serine; the entry carries an N-terminal Met and a C-terminal His6; Biotinylated in some assays; also called hIL-33 (mm2); huIL-33 (mm2)
T1 chain: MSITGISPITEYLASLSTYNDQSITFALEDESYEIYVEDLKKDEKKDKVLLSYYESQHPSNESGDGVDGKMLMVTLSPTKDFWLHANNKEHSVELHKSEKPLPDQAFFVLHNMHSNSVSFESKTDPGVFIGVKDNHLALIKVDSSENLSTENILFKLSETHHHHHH
Procedure: (§1) HuIL33 wt was reduced in 3 mM DTT for a minimum of two hrs prior to use. Affinity determinations were made at room temperature using the fixed antigen assay format. Equilibrium binding was achieved by incubation at 25° C. for 72 hrs. Data analysis was performed with the KinExA Pro software version 3.6.5 (Sapidyne). […] The “drift correction” was used when appropriate. Multiple curves were obtained, both receptor and KD controlled, in independent experiments and analyzed using the “n-curve analysis” tool to obtain global best fit values for the KD and active concentration. The software reports each best fit value along with a 95% confidence interval.
(§2) Table 13. Affinity determinations were made using the fixed-antigen assay format. […] The 95% confidence interval, shown in parentheses with the kD, and percent error are calculated by KinExA software based on a least-squares fit of the theoretical binding equation to the measured signals.

[2] = target: T2, human IL-33 WT, reduced with DTT (human, UniProt O95760 112-270); test: as above
T2 construct: Wild-type cysteines, FLAG tag in the entry; reduced with 3 mM DTT before use; also called huIL33 wt; hu IL-33 (WT + DTT)
T2 sequence: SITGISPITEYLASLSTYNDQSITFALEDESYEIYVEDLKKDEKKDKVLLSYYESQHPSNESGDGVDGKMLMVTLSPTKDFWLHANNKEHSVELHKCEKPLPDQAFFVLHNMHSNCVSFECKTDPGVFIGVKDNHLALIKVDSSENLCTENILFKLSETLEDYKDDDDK
Procedure: as §1, §2

[3] = target: T1, human IL-33 (mm2); test: SPR, Fab captured by anti-human Fab kit, IL-33 in solution
Procedure: (§3) Fab fragment affinity was measured by two methods, surface plasmon resonance using a BIAcore instrument, with either Fab or IL-33 captured on the chip, and solution equilibrium affinity measurements using a KinExA instrument, with both Fab and IL-33 in solution.
(§4) Surface plasmon resonance experiments were conducted in two formats.

[4] = target: T1, human IL-33 (mm2); test: SPR, biotinylated IL-33 on streptavidin sensor, Fab in solution
Procedure: as §3, §4

[5] = target: T3, IL-1α (UniProt P01583 113-271); test: SPR (Biacore T200), Fab captured on the chip, cytokine injected
T3 sequence (looked up): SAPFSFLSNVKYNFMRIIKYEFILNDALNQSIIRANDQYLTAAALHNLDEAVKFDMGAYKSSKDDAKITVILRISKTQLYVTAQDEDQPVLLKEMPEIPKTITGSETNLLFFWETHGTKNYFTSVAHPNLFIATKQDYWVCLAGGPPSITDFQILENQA
From the text: (§5) The panel of cytokines included IL-1α, IL-1β, IL-18, IL-36α, and IL-36γ.

[6] = target: IL-1β (UniProt P01584 117-269); test: as above
From the text: as §5

[7] = target: T4, IL-18 (UniProt Q14116 37-193); test: as above
T4 sequence (looked up): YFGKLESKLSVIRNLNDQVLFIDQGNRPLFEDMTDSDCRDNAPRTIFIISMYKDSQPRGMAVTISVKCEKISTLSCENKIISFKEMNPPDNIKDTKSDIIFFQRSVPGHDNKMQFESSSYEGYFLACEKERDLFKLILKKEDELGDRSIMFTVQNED
From the text: as §5

[8] = target: T5, IL-36α (UniProt Q9UHA7 6-158); test: as above
T5 sequence (looked up): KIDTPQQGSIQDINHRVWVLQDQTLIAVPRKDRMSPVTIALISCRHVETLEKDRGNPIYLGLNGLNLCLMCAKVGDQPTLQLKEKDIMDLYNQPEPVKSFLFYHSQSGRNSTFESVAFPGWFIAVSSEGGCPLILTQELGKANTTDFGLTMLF
From the text: as §5

[9] = target: T6, IL-36γ (UniProt Q9NZH8 18-169); test: as above
T6 sequence (looked up): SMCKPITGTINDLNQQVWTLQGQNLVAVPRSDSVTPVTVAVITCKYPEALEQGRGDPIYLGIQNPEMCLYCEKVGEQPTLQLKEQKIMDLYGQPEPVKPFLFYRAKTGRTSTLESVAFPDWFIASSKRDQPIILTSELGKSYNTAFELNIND
From the text: as §5

[10] = target: T7, human IL-33 WT (R&D) (human, UniProt O95760 112-270); test: SPR, Fab captured by anti-human Fab kit, reduced IL-33 (R&D) in solution
T7 construct: R&D Systems Cat. No. 3625-IL/CF, wild-type cysteines; DTT pretreatment in some assays is said under assay or readout; also called IL-33 (R&D); hIL-33 (R&D)
T7 sequence: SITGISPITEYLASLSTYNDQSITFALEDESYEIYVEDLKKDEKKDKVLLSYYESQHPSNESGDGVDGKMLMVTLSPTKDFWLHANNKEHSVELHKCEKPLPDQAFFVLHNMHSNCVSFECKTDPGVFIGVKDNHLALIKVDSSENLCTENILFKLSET
Procedure: as §3, §4

[11] = target: T1, human IL-33 (mm2); test: SPR, biotinylated IL-33 on streptavidin sensor, Fab in solution; immobilized IL-33 (mm2); Fab in solution
Procedure: as §4

[12] = target: T7, human IL-33 WT (R&D); test: SPR, Fab captured by anti-human Fab kit, reduced IL-33 (R&D) in solution; captured Fab, reduced WT IL-33 in solution

B1: 7E8 CDR graft Fab (Fab, V domains shown)
VH: EVQLVESGGGLVQPGGSLRLSCAASGFTFSSYWMYWVRQAPGKGLEWVASITPNGGNTYYPDSVKGRFTISRDNAKNSLYLQMNSLRAEDTAVYYCARGHYYYTSYSLGYWGQGTLVTVSS
VL: DIQMTQSPSSLSASVGDRVTITCKASQNINKHLDWYQQKPGKAPKLLIYFTNNLQTGVPSRFSGSGSGTDFTLTISSLQPEDFATYYCFQYNNGWTFGGGTKVEIKR
notes: also called 7E8 Fab; CDR grafted-7E8 Fab
- Kd [1]: 0.351 pM
- Kd [2]: 4.04 pM
- Kd [3]: 250 pM
- koff [3]: 0.000301 s⁻¹
- kon [3]: 1.38e+06 M⁻¹ s⁻¹
- Kd [4]: 3.06 pM
- koff [4]: 1.68e-05 s⁻¹
- binding result [5]: no binding
- binding result [6]: no binding
- binding result [7]: no binding
- binding result [8]: no binding
- binding result [9]: no binding
- Kd [10]: 290 pM
- koff [10]: 0.000377 s⁻¹
- kon [11]: 5.47e+06 M⁻¹ s⁻¹
- kon [12]: 2.06e+06 M⁻¹ s⁻¹
